Test results taken from EP4628892A1 (Korea Research Institute of Bioscience and Biotechnology, dated 2025).
Numbering of substitutions follows the chain as printed. One block for each binder: values may come before it.

Target: T1, hNgR1-his (human, UniProt Q9BZR6 27-447, limits assumed)
T1 construct: Soluble antigen flowed over antibodies captured on Protein A chips; also called antigen protein (hNgR1-his); the antigen; not shown: histidine tag
T1 sequence (looked up): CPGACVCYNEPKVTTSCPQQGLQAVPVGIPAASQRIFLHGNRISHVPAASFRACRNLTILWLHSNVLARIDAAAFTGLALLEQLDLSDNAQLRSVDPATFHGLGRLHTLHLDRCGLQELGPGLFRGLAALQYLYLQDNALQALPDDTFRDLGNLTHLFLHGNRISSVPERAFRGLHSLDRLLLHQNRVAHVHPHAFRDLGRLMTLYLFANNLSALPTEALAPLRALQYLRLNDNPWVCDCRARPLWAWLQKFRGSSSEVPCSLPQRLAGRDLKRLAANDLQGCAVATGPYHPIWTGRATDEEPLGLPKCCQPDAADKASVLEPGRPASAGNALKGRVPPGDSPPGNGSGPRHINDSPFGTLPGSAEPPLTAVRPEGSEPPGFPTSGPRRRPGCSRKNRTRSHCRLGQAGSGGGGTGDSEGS
Assay: SPR, Biacore T200; IgG1 captured on Protein A chip, hNgR1-his flowed at different concentrations

B1: H6HE2L antibody (antibody, human IgG1, kappa, V domains shown)
VH: QMQLVQSGGGLEQPGRSLRLSCVTSGFNFNDYAMHWVRQAPGKGLEWVSGISWNSGAIGYADSVKGRFTVSRDNSKNSLYLQMNSLRAEDTAVYYCARDYNYETSGYYHGFDNWGQGTLVTVSS
VL: DIQMTQSPSSVSASVGDRVTITCRASQGISRWLSWYQQKPGKAPKLLIYAASNLQSGVPLRFSGSGSGTDFTLTINSLQPEDSATYYCQQTNNFPYTFGQGTKVEIKR
notes: Optimized from CSA108
- Kd: 1.69 nM

B2: CSA123 antibody (antibody, human IgG1, kappa, V domains shown)
VH: QMQLVQSGAEVKKPGASVKVSCKVSGYTLSELSIHWVRQAPGKGLEWMGGFDPEDDETVYAQKFQGRVTLTDDTSTDTAYMELSSLRSEDTAVYYCARDLGYLTSGNYYDAFDIWGRGTMITVSS
VL: B1 VL with G28D, S30N, S34A, N53R, Y96R, K103R, V104L
notes: also called anti-NgR1 antibody CSA123
- Kd: 31.5 nM

B4: S3 antibody (antibody, human IgG1, kappa, V domains shown)
VH: B2 VH with D110N, D113G
VL: B1 VL with G28D, S30N, S34A, N53R, Y96R, K103R, V104L
notes: Optimized from CSA123
- Kd: 5.84 nM

B8: CSA108 antibody (antibody, human IgG1, kappa, V domains shown)
VH: B1 VH with N101Y, H109Y
VL: B1 VL with S34A
notes: also called anti-NgR1 antibody CSA108
- Kd: 23.3 nM

Other lines, results leading:

- Kd: 5.51 nM
B3: S6 antibody (antibody, human IgG1, kappa, V domains shown)
VH: B2 VH with E31G, P53S
VL: B1 VL with G28D, S30N, S34A, N53R, Y96R, K103R, V104L
notes: Optimized from CSA123

- Kd: 0.194 nM
B5: C1HE2E6 antibody (antibody, human IgG1, kappa, V domains shown)
VH: B1 VH with T104I, H109Y
VL: B1 VL with S67F
notes: Optimized from CSA108

- Kd: 4.15 nM
B6: G8 antibody (antibody, human IgG1, kappa, V domains shown)
VH: B2 VH with T28P, P53S, D113G
VL: B1 VL with G28D, S30N, S34A, N53R, Y96R, K103R, V104L
notes: Optimized from CSA123

- Kd: 5.33 nM
B7: D11 antibody (antibody, human IgG1, kappa, V domains shown)
VH: B2 VH with P53S, I114F
VL: B1 VL with G28D, S30N, S34A, N53R, Y96R, K103R, V104L
notes: Optimized from CSA123
